The target in assay [1] is T1, monkey TIM-3 on CHOK1 stable cell line (CHOK1-cTIM-3) (monkey).
T1 chain: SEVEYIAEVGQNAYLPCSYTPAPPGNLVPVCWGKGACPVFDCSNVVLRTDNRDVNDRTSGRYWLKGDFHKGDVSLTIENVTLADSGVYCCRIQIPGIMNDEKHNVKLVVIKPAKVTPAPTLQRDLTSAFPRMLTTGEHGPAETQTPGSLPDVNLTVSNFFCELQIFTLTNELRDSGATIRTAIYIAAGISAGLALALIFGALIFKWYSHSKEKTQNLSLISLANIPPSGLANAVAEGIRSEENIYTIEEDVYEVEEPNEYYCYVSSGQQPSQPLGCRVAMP
Kind of assay: FACS, CHOK1-cTIM-3 cells, 200 nM antibody. The source says:
(§1) The pIRES plasmid containing the full-length nucleotide sequence encoding human TIM-3 as described in Example 1 was transfected into CHOK1 cell line to obtain a CHOK1 stable cell line containing human TIM-3 (herein referred to as CHOK1-hTIM-3 stable cell line). The pIRES plasmid containing the full-length gene of monkey TIM-3 was transfected into CHOK1 cell line to construct a CHOK1 stable cell line containing monkey TIM-3 (herein referred to as CHOK1-cTIM-3 stable cell line). The CHOK1-hTIM-3 stable cell line and CHOK1-cTIM-3 stable cell line were expanded to a confluence of 90% in a T-75 cell culture flask. The medium was aspirated, and the cells were washed with HBSS (Hanks' Balanced Salt Solution) 1-2 times, and then treated with an enzyme-free cell dissociation solution (Versene solution: Life technology) and the cells were collected. The cells were washed with HBSS buffer for 1-2 times. After counted, the cells were diluted with HBSS to 1-2×10⁶ cells per ml, added with 1% goat serum blocking solution, incubated on ice for 20-30 minutes, and then washed with HBSS by centrifugation 2 times. The collected cells were suspended in the FACS buffer (HBSS+1% BSA) to 2×10⁶ cells/ml, added as 100 microliters per well to a 96-well FACS reaction plate, added with 100 microliters per well of the antibody sample to be tested, incubated on ice for 1-2 hours. The plate was washed twice with the FACS buffer by centrifugation, added with 100 microliters of fluorescent (Alexa 488)-labeled secondary antibodies per well, and incubated on ice for 0.5-1.0 hours. The plate was washed 2-3 times with FACS buffer by centrifugation, added with 100 μl fixative solution (4% Paraformaldehyde) per well to suspend the cells. 5-10 minutes later, it was washed 1-2 times with FACS buffer by centrifugation. The cells were suspended with 100 microliters of FACS buffer, FACS (FACSCalibur, BD) was used for detection and the results were analyzed. The results are shown in FIGS. 7 and 8, Tables 7 and 8, wherein the IgG control is rat IgG, and the data in the table are the average fluorescence intensity values of the cell populations measured by MFI.
(A flow cytometer gives signals particle by particle.)

The target in assay [2] is T1, monkey TIM-3 on CHOK1 stable cell line …. As to the kind of experiment: FACS, CHOK1-cTIM-3 cells, 40 nM antibody.
Description: as §1

Assay [3] has the same target. Kind of assay: FACS, CHOK1-cTIM-3 cells, 0.064 nM antibody.
Description: as §1

For assay [4] the target is unchanged. As to the kind of experiment: FACS, CHOK1-cTIM-3 cells, 8 nM antibody.
Description: as §1

For assay [5] the target is unchanged. Kind of assay: FACS, CHOK1-cTIM-3 cells, 0.013 nM antibody.
Description: as §1

Assay [6] shares this target. Kind of assay: FACS, CHOK1-cTIM-3 cells, 1.6 nM antibody.
Description: as §1

For assay [7] the target is unchanged. As to the kind of experiment: FACS, CHOK1-cTIM-3 cells, 0.32 nM antibody.
Description: as §1

The target is the same in assay [8]. As to the kind of experiment: FACS, CHOK1-cTIM-3 cells, 0 nM antibody.
Description: as §1

The target in assay [9] is T2, TIM-3 protein on human peripheral blood mononuclear lymphocytes (PBMC) (human, UniProt Q8TDQ0 22-301).
T2 sequence: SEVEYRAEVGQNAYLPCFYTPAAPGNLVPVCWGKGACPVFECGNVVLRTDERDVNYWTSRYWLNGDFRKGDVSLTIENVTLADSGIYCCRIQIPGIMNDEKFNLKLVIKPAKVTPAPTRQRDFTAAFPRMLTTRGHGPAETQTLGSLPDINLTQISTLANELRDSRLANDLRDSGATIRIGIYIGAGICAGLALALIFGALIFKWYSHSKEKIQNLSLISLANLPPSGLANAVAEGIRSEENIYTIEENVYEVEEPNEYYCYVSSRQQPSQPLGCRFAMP
As to the kind of experiment: cell-based or functional assay.

B1: 215A8F2 TIM-3 antibody purified from hybridoma supernatant (chimeric antibody of Example 2) (antibody, V domains shown)
VH: QVQLQQWGAGLLKPSETLSLTCTVYGGSFSGYYWNWIRQPPGKGLEWLGEINHSGSTNYNPSLKRRVTISVDTSKNQFSLKLSSVTAADTAVYYCARVYYYGPFDFWGQGTLVTVSS
VL: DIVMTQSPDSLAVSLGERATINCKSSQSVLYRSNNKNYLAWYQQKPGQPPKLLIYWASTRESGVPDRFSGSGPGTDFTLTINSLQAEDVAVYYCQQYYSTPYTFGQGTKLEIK
Take B1: the Mean fluorescence intensity in assay [1] was 961. In assay [2], this molecule returned a Mean fluorescence intensity of 976. Further, the Mean fluorescence intensity in [3] came out at 34.7. Moreover, the Mean fluorescence intensity in [4] was 733. The Mean fluorescence intensity in assay [5] is 13.6. The Mean fluorescence intensity in assay [6] worked out at 330. The Mean fluorescence intensity in assay [7] came to 108. The same molecule showed a Mean fluorescence intensity in assay [8] of 3.2. Also, in assay [9], the “IFN production; antibody 0.001 µg/ml (4th head as printed), N = 1” value came to 782 pg/mL; the “IFN production; antibody 0.001 µg/ml (4th head as printed), N = 2” value was 753 pg/mL; the “IFN production; antibody 0.001 µg/ml (5th head as printed), N = 1” value was found to be 791 pg/mL; the “IFN production; antibody 0.001 µg/ml (5th head as printed), N = 2” value turned out to be 741 pg/mL. In addition, in assay [9], the “IFN production; antibody 0.1 µg/ml, N = 1” value was found to be 840 pg/mL; the “IFN production; antibody 0.1 µg/ml, N = 2” value was found to be 901 pg/mL; the “IFN production; antibody 1 µg/ml, N = 1” value came out at 1020 pg/mL; the “IFN production; antibody 1 µg/ml, N = 2” value is 1070 pg/mL. In [9], the “IFN production; antibody 10 µg/ml, N = 1” value is 943 pg/mL and the “IFN production; antibody 10 µg/ml, N = 2” value is 1070 pg/mL.

For the origin of these results see patent US20220033501A1 (SHANGHAI PHARMAEXPLORER, published 2022).
